Source: US20250136721A1 (GlaxoSmithKline, published 2025)
Read-outs that look alike come from different tables or passages of the source.

T1: Recombinant human TNFR1-Fc (human, UniProt P19438 30-211, limits assumed)
T1 construct: bought reagent; also called hTNFR1:Fc; not shown: Fc part; not described
T1 sequence (looked up): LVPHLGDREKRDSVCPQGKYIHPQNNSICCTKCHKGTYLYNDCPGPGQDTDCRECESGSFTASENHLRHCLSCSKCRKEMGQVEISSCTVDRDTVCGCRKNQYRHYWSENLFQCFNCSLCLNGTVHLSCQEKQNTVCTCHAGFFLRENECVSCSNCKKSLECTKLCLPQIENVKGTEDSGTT

B1: DOM1H-131-206 G44E (other, name in Kabat numbering)
VH: EVQLLESGGGLVQPGGSLRLSCAASGFTFAHETMVWVRQAPGKELEWVSHIPPDGQDPFYADSVKGRFTISRDNSKNTLYLQMNSLRAEDTAVYHCALLPKRGPWFDYWGQGTLVTVSS
notes: VH dAb variant
B2: DOM1H-131-206 G44E, H91S (other, name in Kabat numbering)
VH: EVQLLESGGGLVQPGGSLRLSCAASGFTFAHETMVWVRQAPGKELEWVSHIPPDGQDPFYADSVKGRFTISRDNSKNTLYLQMNSLRAEDTAVYSCALLPKRGPWFDYWGQGTLVTVSS
notes: VH dAb variant
B3: DOM1H-131-206 G44E, L108Q (other, name in Kabat numbering)
VH: EVQLLESGGGLVQPGGSLRLSCAASGFTFAHETMVWVRQAPGKELEWVSHIPPDGQDPFYADSVKGRFTISRDNSKNTLYLQMNSLRAEDTAVYHCALLPKRGPWFDYWGQGTQVTVSS
notes: VH dAb variant
B4: DOM1H-131-206 H91S (other, name in Kabat numbering)
VH: EVQLLESGGGLVQPGGSLRLSCAASGFTFAHETMVWVRQAPGKGLEWVSHIPPDGQDPFYADSVKGRFTISRDNSKNTLYLQMNSLRAEDTAVYSCALLPKRGPWFDYWGQGTLVTVSS
notes: VH dAb variant
B5: DOM1H-131-206 K43A (other, name in Kabat numbering)
VH: EVQLLESGGGLVQPGGSLRLSCAASGFTFAHETMVWVRQAPGAGLEWVSHIPPDGQDPFYADSVKGRFTISRDNSKNTLYLQMNSLRAEDTAVYHCALLPKRGPWFDYWGQGTLVTVSS
notes: VH dAb variant
B6: DOM1H-131-206 P14A, G44E (other, name in Kabat numbering)
VH: EVQLLESGGGLVQAGGSLRLSCAASGFTFAHETMVWVRQAPGKELEWVSHIPPDGQDPFYADSVKGRFTISRDNSKNTLYLQMNSLRAEDTAVYHCALLPKRGPWFDYWGQGTLVTVSS
notes: VH dAb variant
B7: DOM1H-131-206 P14A, H91S (other, name in Kabat numbering)
VH: EVQLLESGGGLVQAGGSLRLSCAASGFTFAHETMVWVRQAPGKGLEWVSHIPPDGQDPFYADSVKGRFTISRDNSKNTLYLQMNSLRAEDTAVYSCALLPKRGPWFDYWGQGTLVTVSS
notes: VH dAb variant
B8: DOM1H-131-206 P41A (other, name in Kabat numbering)
VH: EVQLLESGGGLVQPGGSLRLSCAASGFTFAHETMVWVRQAAGKGLEWVSHIPPDGQDPFYADSVKGRFTISRDNSKNTLYLQMNSLRAEDTAVYHCALLPKRGPWFDYWGQGTLVTVSS
notes: VH dAb variant
B9: DOM1H-131-206 R83A (other, name in Kabat numbering)
VH: EVQLLESGGGLVQPGGSLRLSCAASGFTFAHETMVWVRQAPGKGLEWVSHIPPDGQDPFYADSVKGRFTISRDNSKNTLYLQMNSLAAEDTAVYHCALLPKRGPWFDYWGQGTLVTVSS
notes: VH dAb variant
B10: DOM10H-53-567 (protein)
VH: GVQLLESGGGLVQPGGSLRLSCAASGFVFAWYDMGWVRQAPGKGLEWVSSIDWHGEVTYYADSVKGRFTISRDNSKNTLYLQMNSLRAEDTAVYYCATAEDEPGYDYWGQGTLVTVSS
B11: DOM1H-131-206 C-terminal AST (protein)
VH: EVQLLESGGGLVQPGGSLRLSCAASGFTFAHETMVWVRQAPGKGLEWVSHIPPDGQDPFYADSVKGRFTISRDNSKNTLYLQMNSLRAEDTAVYHCALLPKRGPWFDYWGQGTLVTVSSAST
B12: DOM1H-131-206 C-terminal S deletion (ΔS) (protein)
VH: EVQLLESGGGLVQPGGSLRLSCAASGFTFAHETMVWVRQAPGKGLEWVSHIPPDGQDPFYADSVKGRFTISRDNSKNTLYLQMNSLRAEDTAVYHCALLPKRGPWFDYWGQGTLVTVS
B13: DOM1H-131-206 P14E (protein, name in Kabat numbering)
VH: EVQLLESGGGLVQEGGSLRLSCAASGFTFAHETMVWVRQAPGKGLEWVSHIPPDGQDPFYADSVKGRFTISRDNSKNTLYLQMNSLRAEDTAVYHCALLPKRGPWFDYWGQGTLVTVSS
B14: DOM1H-131-206 P14K (protein, name in Kabat numbering)
VH: EVQLLESGGGLVQKGGSLRLSCAASGFTFAHETMVWVRQAPGKGLEWVSHIPPDGQDPFYADSVKGRFTISRDNSKNTLYLQMNSLRAEDTAVYHCALLPKRGPWFDYWGQGTLVTVSS
B15: DOM1H-131-206 P14Q (protein, name in Kabat numbering)
VH: EVQLLESGGGLVQQGGSLRLSCAASGFTFAHETMVWVRQAPGKGLEWVSHIPPDGQDPFYADSVKGRFTISRDNSKNTLYLQMNSLRAEDTAVYHCALLPKRGPWFDYWGQGTLVTVSS
B16: DOM1H-131-206 P14T (protein, name in Kabat numbering)
VH: EVQLLESGGGLVQTGGSLRLSCAASGFTFAHETMVWVRQAPGKGLEWVSHIPPDGQDPFYADSVKGRFTISRDNSKNTLYLQMNSLRAEDTAVYHCALLPKRGPWFDYWGQGTLVTVSS
B17: DOM1H-131-206 L11A (protein, name in Kabat numbering)
VH: EVQLLESGGGAVQPGGSLRLSCAASGFTFAHETMVWVRQAPGKGLEWVSHIPPDGQDPFYADSVKGRFTISRDNSKNTLYLQMNSLRAEDTAVYHCALLPKRGPWFDYWGQGTLVTVSS
B18: DOM1H-131-206 L108A (protein, name in Kabat numbering)
VH: EVQLLESGGGLVQPGGSLRLSCAASGFTFAHETMVWVRQAPGKGLEWVSHIPPDGQDPFYADSVKGRFTISRDNSKNTLYLQMNSLRAEDTAVYHCALLPKRGPWFDYWGQGTAVTVSS
B19: DOM1H-131-206 T110A (protein, name in Kabat numbering)
VH: EVQLLESGGGLVQPGGSLRLSCAASGFTFAHETMVWVRQAPGKGLEWVSHIPPDGQDPFYADSVKGRFTISRDNSKNTLYLQMNSLRAEDTAVYHCALLPKRGPWFDYWGQGTLVAVSS
B20: DOM1H-131-206 S112A (protein, name in Kabat numbering)
VH: EVQLLESGGGLVQPGGSLRLSCAASGFTFAHETMVWVRQAPGKGLEWVSHIPPDGQDPFYADSVKGRFTISRDNSKNTLYLQMNSLRAEDTAVYHCALLPKRGPWFDYWGQGTLVTVAS
B21: DOM1H-131-206 P14K + C-terminal A (protein, name in Kabat numbering)
VH: EVQLLESGGGLVQKGGSLRLSCAASGFTFAHETMVWVRQAPGKGLEWVSHIPPDGQDPFYADSVKGRFTISRDNSKNTLYLQMNSLRAEDTAVYHCALLPKRGPWFDYWGQGTLVTVSSA
B22: DOM1H-131-206 P14K + C-terminal ASTKG (protein, name in Kabat numbering)
VH: EVQLLESGGGLVQKGGSLRLSCAASGFTFAHETMVWVRQAPGKGLEWVSHIPPDGQDPFYADSVKGRFTISRDNSKNTLYLQMNSLRAEDTAVYHCALLPKRGPWFDYWGQGTLVTVSSASTKG
B23: DOM1H-131-206 P14Q + C-terminal A (protein, name in Kabat numbering)
VH: EVQLLESGGGLVQQGGSLRLSCAASGFTFAHETMVWVRQAPGKGLEWVSHIPPDGQDPFYADSVKGRFTISRDNSKNTLYLQMNSLRAEDTAVYHCALLPKRGPWFDYWGQGTLVTVSSA
B24: DOM1H-131-206 P14Q + C-terminal ASTKG (protein, name in Kabat numbering)
VH: EVQLLESGGGLVQQGGSLRLSCAASGFTFAHETMVWVRQAPGKGLEWVSHIPPDGQDPFYADSVKGRFTISRDNSKNTLYLQMNSLRAEDTAVYHCALLPKRGPWFDYWGQGTLVTVSSASTKG
B25: DOM1H-131-206 P14T + C-terminal A (protein, name in Kabat numbering)
VH: EVQLLESGGGLVQTGGSLRLSCAASGFTFAHETMVWVRQAPGKGLEWVSHIPPDGQDPFYADSVKGRFTISRDNSKNTLYLQMNSLRAEDTAVYHCALLPKRGPWFDYWGQGTLVTVSSA

Key:
[1] = biological target: pre-existing anti-VH ADA in human serum; assay: ADA confirmation assay (MSD): 10 ug/mL test material against labelled DOM1H-131-206; share of 10 ADA-positive sera with binding
[2] = biological target: T1, Recombinant human TNFR1-Fc; assay: ELISA: dAb on coated recombinant human TNFR1-Fc, anti-Vh detection
[3] = biological target: pre-existing anti-VH ADA in human serum; assay: ADA confirmation assay (MSD): 10 ug/mL test material against labelled DOM1H-131-206, mean of 10 sera
[4] = biological target: pre-existing anti-VH ADA in human serum; assay: ADA confirmation assay (MSD) described previously, mean of 10 donor sera
[5] = biological target: pre-existing anti-VH ADA in human serum; assay: ADA confirmation assay (MSD): 10 ug/mL test material against labelled DOM1H-131-206; share of 10 ADA-positive sera with binding; remark: listed apart in the source
[6] = biological target: pre-existing anti-VH ADA in human serum; assay: ADA confirmation assay (MSD): 10 ug/mL test material against labelled DOM1H-131-206, mean of 10 sera; remark: listed apart in the source

Row | Binder | % subjects with ADA binding (10 subjects) (% of subjects) [1] | EC50 [2] | Mean % inhibition of signal in confirmation assay [3] | % inhibition in confirmation assay [4] | % subjects with ADA binding (10 subjects) (% of subjects) [5] | Mean % inhibition of signal in confirmation assay [6]
1 | B1 | 100 | 860 pM | 99.5% |  |  | 
2 | B2 | 100 | 3500 pM | 99.1% |  |  | 
3 | B3 | 100 | 1640 pM | 91.3% |  |  | 
4 | B4 | 100 | 960 pM | 99.4% |  |  | 
5 | B5 | 100 | 670 pM | 99.5% |  |  | 
6 | B6 | 100 | 2030 pM | 61.6% |  |  | 
7 | B7 | 60 | 750 pM | 50.2% |  |  | 
8 | B8 | 100 | 590 pM | 87.3% |  |  | 
9 | B9 | 100 | 760 pM | 99.3% |  |  | 
10 | B10 |  |  |  | 95.1% |  | 
11 | B11 | 50 |  | 26.4% |  | 20 | 35%
12 | B12 |  |  |  |  | 40 | 44.7%
13 | B13 |  |  |  |  | 60 | 47.2%
14 | B14 |  |  |  |  | 50 | 46.7%
15 | B15 |  |  |  |  | 60 | 52.9%
16 | B16 |  |  |  |  | 100 | 68.9%
17 | B17 |  |  |  |  | 100 | 98%
18 | B18 |  |  |  |  | 100 | 94.3%
19 | B19 |  |  |  |  | 100 | 78.8%
20 | B20 |  |  |  |  | 80 | 77.1%
21 | B21 |  |  |  |  | 10 | 29.1%
22 | B22 |  |  |  |  | 10 | 25%
23 | B23 |  |  |  |  | 20 | 29.7%
24 | B24 |  |  |  |  | 10 | 21.8%
25 | B25 |  |  |  |  | 20 | 33%
